Experimental data taken from the supplement of paper PMC11208486.

Columns and labels:
[1] = melting temperature (ThermoFMN); higher = more thermostable
Experimental: (§1)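 Purified His-tagged ene reductases (1 mg/ml) in 50 mM sodium phosphate pH 7.4 with 0-30% (v/v) organic co-solvent. Melting temperature was measured by the ThermoFMN assay (FMN fluorescence, 20-90 °C at 1 °C/min, inflection point, triplicate). Specific initial activity was measured with 10 mM cyclohex-2-enone and 0.2 mM NAD(P)H (NADH for LacER) as A340 depletion, at room temperature (DMSO, 2-propanol, n-propanol) or 25 °C (EtOH, MeOH), in triplicate. The TsOYE Tm is above the 90 °C measurement range.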

[2] = specific initial activity, cyclohex-2-enone reduction (U mg-1); higher = more active
Experimental: as §1, with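 “reductases” for “reductases (1 mg/ml)”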

MARKLFTPITIKDMTLKNRIVMSPMCMYSSHEKDGKLTPFHMAHYISRAIGQVGLIIVEASAVNPQGRITDQDLGIWSDEHIEGFAKLTEQVKEQGSKIGIQLAHAGRKAELEGDIFAPSAIAFDEQSATPVEMSAEKVKETVQEFKQAAARAKEAGFDVIEIHAAHGYLIHEFLSPLSNHRTDEYGGSPENRYRFLREIIDEVKQVWDGPLFVRVSASDYTDKGLDIADHIGFAKWMKEQGVDLIDCSSGALVHADINVFPGYQVSFAEKIREQADMATGAVGMITDGSMAEEILQNGRADLIFIGRELLRDPFFARTAAKQLNTEIPAPVQYERGW
Conditions | melting temperature, co-solvent: 2-propanol [°C] | melting temperature, co-solvent: dimethyl sulfoxide [°C] | melting temperature, co-solvent: ethanol [°C] | melting temperature, co-solvent: methanol [°C] | melting temperature, co-solvent: n-propanol [°C] | specific initial activity, co-solvent: 2-propanol | specific initial activity, co-solvent: dimethyl sulfoxide | specific initial activity, co-solvent: ethanol | specific initial activity, co-solvent: methanol | specific initial activity, co-solvent: n-propanol
[1], co-solvent concentration (% v/v): 0 | 50.7 | 51 | 51 | 51 | 51 | – | – | – | – | –
[1], co-solvent concentration (% v/v): 5 | 40 | 49.3 | 45 | 48.3 | 43.3 | – | – | – | – | –
[1], co-solvent concentration (% v/v): 10 | 36.3 | 48 | 42.3 | 43.3 | 35.3 | – | – | – | – | –
[1], co-solvent concentration (% v/v): 15 | 34 | 46.7 | 38.3 | 40 | 29.7 | – | – | – | – | –
[1], co-solvent concentration (% v/v): 20 | 31.3 | 46 | 35 | 39.3 | 28.3 | – | – | – | – | –
[1], co-solvent concentration (% v/v): 25 | 27.3 | 45 | 33 | 36.7 | 27.7 | – | – | – | – | –
[1], co-solvent concentration (% v/v): 30 | 24.3 | 44 | 31 | 33 | 26.7 | – | – | – | – | –
[2], co-solvent concentration (% v/v): 0 | – | – | – | – | – | 0.49 | 0.52 | 0.46 | 0.51 | 0.5
[2], co-solvent concentration (% v/v): 5 | – | – | – | – | – | 0.34 | 0.4 | 0.33 | 0.39 | 0.25
[2], co-solvent concentration (% v/v): 10 | – | – | – | – | – | 0.21 | 0.33 | 0.21 | 0.3 | 0.17
[2], co-solvent concentration (% v/v): 15 | – | – | – | – | – | 0.16 | 0.25 | 0.07 | 0.13 | 0.12
[2], co-solvent concentration (% v/v): 20 | – | – | – | – | – | 0.11 | 0.17 | 0.03 | 0.12 | 0.05
[2], co-solvent concentration (% v/v): 25 | – | – | – | – | – | 0.14 | 0.1 | 0.03 | 0.07 | 0
[2], co-solvent concentration (% v/v): 30 | – | – | – | – | – | 0.06 | 0.05 | 0.02 | 0.05 | 0
